Data published in patent US20210292426A1 (Hoffmann-La Roche, published 2021).
Numbering of substitutions follows the chain as printed. Names may count otherwise. Values belong to the binder of their own block, whether it stands above or below them.

How the values were obtained:
[1] = biological target: T1, biotinylated recombinant human FAP (human, UniProt Q12884 27-760, biotinylated (site not stated)); assay: SPR (Biacore), Fab
T1 construct: also called biotinylated human FAP; recombinant huFAP

[2] = biological target: T2, human fibroblast activation protein (huFAP) expressed on cells (human, UniProt Q12884 1-760); assay: flow cytometry, NIH/3T3-huFAP cells
T2 construct: UniProt Q12884 printed; also called human FAP; hFAP
Description: (§1) Plates were centrifuged 5 minutes at 1700 rpm and supernatants were flicked off. […] Afterwards the cells were washed three times with 200 μL 4° C. cold FACS buffer. […] Data analysis was performed using the FlowJo version 10 software (FlowJo LLC).

[3] = biological target: T3, human CD40 expressed on cells (human, UniProt P25942 21-277); assay: flow cytometry, primary human B cells
T3 construct: Endogenous CD40 on Raji, Daudi and primary human B cells; human CD40 on DCs of huCD40tg mice; also called huCD40; Raji cells
Description: as §1

[4] = biological target: T2, human fibroblast activation protein …; assay: flow cytometry competition on huFAP-transfected HEK cells; unlabelled antibody titrated 0.2-60 µg/ml, then AF647-labelled 4B9 (20 µg/ml) as competitor
Description: Briefly, the target cells were harvested with Cell Dissociation buffer, washed with FACS Buffer (PBS+2% FCS+5 mM EDTA+0.25% sodium acide) and seeded into 96-U bottom plates (1×10^5 cells/well).

[5] = biological target: T1, biotinylated recombinant human FAP; assay: SPR (Biacore), biotinylated huFAP immobilized, Fab analyte
Description: As running and dilution buffer, HBS-P+ (10 mM HEPES, 150 mM NaCl pH 7.4, 0.05% Surfactant P20) was used. A dilution series of anti-huFAP Fabs (3.7-300 nM, 1:3 dilution) was successively injected for 120s each, dissociation was monitored for 1800s at a flow rate of 30 μl/min (single cycle kinetics). The surface was regenerated by injecting 6 M guanidine-HCl, 0.25 M NaOH for 120 s. […] Curve fitting was performed using the 1:1 Langmuir binding model within the Biacore evaluation software.

B1: P1AE1690_Fab (humanized clone 212, VH1G2a/VL1G1a) (Fab, V domains shown)
VH: QVQLVQSGAEVKKPGASVKVSCKASGYTLTDYNMDWVRQAPGKSLEWIGDIYPNTGGTIYNQKFKGRVTMTIDKSTSTVYMELSSLRSEDTAVYYCTRFRGIHYAMDYWGQGTTVTVSS
VL: EIVLTQSPATLSLSPGERATLSCRASESVDNYGLSFINWFQQKPGQAPRLLIYGTSNRGSGIPARFSGSGSGTDFTLTISSLEPEDFAVYFCQQSNEVPYTFGGGTKVEIK
notes: Fab
- T ½ [1]: 3.05 h

B2: P1AE1693_Fab (humanized clone 212, VH1G2a/VL1G2a) (Fab, V domains shown)
VH: B1 VH
VL: B1 VL with A47P
notes: Fab
- T ½ [1]: 2.68 h

B4: P1AE1702_Fab (humanized clone 212, VH2G2a/VL2G2a) (Fab, V domains shown)
VH: EVQLLESGGGLVQPGGSLRLSCAASGYTLTDYNMDWVRQAPGKGLEWVGDIYPNTGGTIYNQKFKGRFTISIDKSKNTAYLQMNSLRAEDTAVYYCTRFRGIHYAMDYWGQGTTVTVSS
VL: DIQMTQSPSSLSASVGDRVTITCRASESVDNYGLSFINWFQQKPGQPPKLLIYGTSNRGSGVPSRFSGSGSGTDFTLTISSLQPEDFAMYFCQQSNEVPYTFGGGTKVEIK
notes: Fab
- T ½ [1]: 1.8 h

B5: P1AE2487, CD40 (P1AE0817) x FAP (4B9) (2+1) C-terminal crossfab fusion (bispecific antibody)
chain 1: EIVLTQSPGTLSLSPGERATLSCRASQSVTSSYLAWYQQKPGQAPRLLINVGSRRATGIPDRFSGSGSGTDFTLTISRLEPEDFAVYYCQQGIMLPPTFGQGTKVEIKSSASTKGPSVFPLAPSSKSTSGGTAALGCLVKDYFPEPVTVSWNSGALTSGVHTFPAVLQSSGLYSLSSVVTVPSSSLGTQTYICNVNHKPSNTKVDKKVEPKSC
chain 2: DIVMTQTPLSLSVTPGQPASISCRSSQSLVHSNGNTFLHWYLQKPGQSPQLLIYTVSNRFSGVPDRFSGSGSGTDFTLKISRVEAEDVGVYFCSQTTHVPWTFGGGTKVEIKRTVAAPSVFIFPPSDEQLKSGTASVVCLLNNFYPREAKVQWKVDNALQSGNSQESVTEQDSKDSTYSLSSTLTLSKADYEKHKVYACEVTHQGLSSPVTKSFNRGEC
chain 3: not shown
chain 4: QVQLVQSGAEVKKPGASVKVSCKASGYSFTGYYIHWVRQAPGQSLEWMGRVIPNAGGTSYNQKFKGRVTLTVDKSISTAYMELSRLRSDDTAVYYCAREGIYWWGQGTTVTVSSASTKGPSVFPLAPSSKSTSGGTAALGCLVKDYFPEPVTVSWNSGALTSGVHTFPAVLQSSGLYSLSSVVTVPSSSLGTQTYICNVNHKPSNTKVDKKVEPKSCDKTHTCPPCPAPEAAGGPSVFLFPPKPKDTLMISRTPEVTCVVVDVSHEDPEVKFNWYVDGVEVHNAKTKPREEQYNSTYRVVSVLTVLHQDWLNGKEYKCKVSNKALGAPIEKTISKAKGQPREPQVCTLPPSRDELTKNQVSLSCAVKGFYPSDIAVEWESNGQPENNYKTTPPVLDSDGSFFLVSKLTVDKSRWQQGNVFSCSVMHEALHNHYTQKSLSLSPG
- EC50 [2]: 3700 pM

B6: P1AE3378, CD40 (P1AE0817) x FAP (4B9) (3+1) with C-terminal crossfab fusion (bispecific antibody)
chain 1: B5 chain 1
chain 2: B5 chain 2
chain 3: not shown
chain 4: QVQLVQSGAEVKKPGASVKVSCKASGYSFTGYYIHWVRQAPGQSLEWMGRVIPNAGGTSYNQKFKGRVTLTVDKSISTAYMELSRLRSDDTAVYYCAREGIYWWGQGTTVTVSSASTKGPSVFPLAPSSKSTSGGTAALGCLVKDYFPEPVTVSWNSGALTSGVHTFPAVLQSSGLYSLSSVVTVPSSSLGTQTYICNVNHKPSNTKVDKKVEPKSCDGGGGSGGGGSQVQLVQSGAEVKKPGASVKVSCKASGYSFTGYYIHWVRQAPGQSLEWMGRVIPNAGGTSYNQKFKGRVTLTVDKSISTAYMELSRLRSDDTAVYYCAREGIYWWGQGTTVTVSSASTKGPSVFPLAPSSKSTSGGTAALGCLVKDYFPEPVTVSWNSGALTSGVHTFPAVLQSSGLYSLSSVVTVPSSSLGTQTYICNVNHKPSNTKVDKKVEPKSCDKTHTCPPCPAPEAAGGPSVFLFPPKPKDTLMISRTPEVTCVVVDVSHEDPEVKFNWYVDGVEVHNAKTKPREEQYNSTYRVVSVLTVLHQDWLNGKEYKCKVSNKALGAPIEKTISKAKGQPREPQVCTLPPSRDELTKNQVSLSCAVKGFYPSDIAVEWESNGQPENNYKTTPPVLDSDGSFFLVSKLTVDKSRWQQGNVFSCSVMHEALHNHYTQKSLSLSPG
- EC50 [2]: 5530 pM
- EC50 [3]: 85 pM

B8: anti-FAP antibody 28H1 (antibody, V domains shown)
VH: EVQLLESGGGLVQPGGSLRLSCAASGFTFSSHAMSWVRQAPGKGLEWVSAIWASGEQYYADSVKGRFTISRDNSKNTLYLQMNSLRAEDTAVYYCAKGWLGNFDYWGQGTLVTVSS
VL: EIVLTQSPGTLSLSPGERATLSCRASQSVSRSYLAWYQQKPGQAPRLLIIGASTRATGIPDRFSGSGSGTDFTLTISRLEPEDFAVYYCQQGQVIPPTFGQGTKVEIK
notes: also called FAP clone 28H1; FAP (28H1)
- binding result [4]: binds

The next lines start with the values.

- T ½ [1]: 4.57 h
B3: P1AE1689_Fab (humanized clone 212, VH1G1a/VL1G1a) (Fab, V domains shown)
VH: B1 VH with K43Q, S44G, K74T
VL: B1 VL
notes: Fab

- EC50 [2]: 4940 pM
- EC50 [3]: 38 pM
B7: P1AE3377, CD40 (P1AE0817) x FAP (P1AE1689) (3+1) C-terminal crossfab fusion (bispecific antibody, human IgG1, kappa, L234A L235A)
light 1: QVQLVQSGAEVKKPGASVKVSCKASGYTLTDYNMDWVRQAPGQGLEWIGDIYPNTGGTIYNQKFKGRVTMTIDTSTSTVYMELSSLRSEDTAVYYCTRFRGIHYAMDYWGQGTTVTVSSASVAAPSVFIFPPSDEQLKSGTASVVCLLNNFYPREAKVQWKVDNALQSGNSQESVTEQDSKDSTYSLSSTLTLSKADYEKHKVYACEVTHQGLSSPVTKSFNRGEC
light 2: B5 chain 2 with E128R, Q129K
heavy 1: not shown
heavy 2: B6 chain 4 with K144E, K210E, K372E, K438E
notes: Trivalent for CD40, monovalent for FAP; knob-into-hole, P329G LALA Fc; also called CD40 x FAP (212) 3+1 crossfab

- Kd [1]: 279 pM
- T ½ [1]: 0.917 h
- koff [1]: 0.000208 s⁻¹
- kon [1]: 747000 M⁻¹ s⁻¹
- Kd [5]: 430 pM
- koff [5]: 0.00078 s⁻¹
- kon [5]: 1.82e+06 M⁻¹ s⁻¹
B9: 4B9_Fab (Fab, V domains shown)
VH: EVQLLESGGGLVQPGGSLRLSCAASGFTFSSYAMSWVRQAPGKGLEWVSAIIGSGASTYYADSVKGRFTISRDNSKNTLYLQMNSLRAEDTAVYYCAKGWFGGFNYWGQGTLVTVSS
VL: B8 VL with S30T, R31S, I50N, G51V, A52G, T54R, Q93I, V94M, I95L
notes: Fab
